These results are taken from publication PMC4041446, “Eukaryotic and archaeal TBP and TFB/TF(II)B follow different promoter DNA bending pathways”.

The target in data set [1] is SaTBP;SaTFB (TFB1) (Sulfolobus acidocaldarius;Sulfolobus acidocaldarius) (UniProt Q9UWN7). Nature of the data set: smFRET titration (confocal). To be noted: smFRET: N70 buffer (Mj) or N65 buffer (Sa), compositions in Table 1 not in the material, Sa EMSA: 10 mM MOPS pH 6.5, 180 mM NaCl, 20 mM KOAc, 11 mM MgCl2, 10% ….
The target is the same in data set [2]. Nature of the data set: smFRET. To be noted: smFRET: N70 buffer (Mj) or N65 buffer (Sa), compositions in Table 1 not in the material, Sa EMSA: 10 mM MOPS pH 6.5, 180 mM NaCl, 20 mM KOAc, 11 mM MgCl2, 10% …. Background: Mobility shift assays separate free from complexed probe on a gel.
Data set [3] concerns the target T1, MjTBP;MjTFB (Methanocaldococcus jannaschii;Methanocaldococcus jannaschii) (UniProt Q57930+Q58192+Q58192).
T1 sequence 1: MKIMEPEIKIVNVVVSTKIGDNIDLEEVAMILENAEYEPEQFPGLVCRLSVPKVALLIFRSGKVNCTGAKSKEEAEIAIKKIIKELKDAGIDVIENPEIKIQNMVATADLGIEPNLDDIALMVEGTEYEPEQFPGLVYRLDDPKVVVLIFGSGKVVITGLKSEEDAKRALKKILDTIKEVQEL
T1 sequence 2: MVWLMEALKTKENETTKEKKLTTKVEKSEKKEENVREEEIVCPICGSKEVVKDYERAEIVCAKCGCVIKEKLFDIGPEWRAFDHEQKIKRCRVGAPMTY
T1 sequence 3: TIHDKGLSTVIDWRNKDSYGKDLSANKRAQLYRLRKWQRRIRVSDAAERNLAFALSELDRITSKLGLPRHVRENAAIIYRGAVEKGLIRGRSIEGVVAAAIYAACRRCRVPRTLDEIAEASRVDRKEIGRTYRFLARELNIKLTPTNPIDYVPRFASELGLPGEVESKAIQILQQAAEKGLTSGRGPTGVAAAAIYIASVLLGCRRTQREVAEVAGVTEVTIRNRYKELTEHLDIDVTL
As to the kind of experiment: smFRET. To be noted: MjTBP + MjTFB; smFRET: N70 buffer (Mj) or N65 buffer (Sa), compositions in Table 1 not in the material; Sa EMSA: 10 mM MOPS pH 6.5, 180 mM NaCl, 20 mM KOAc, 11 mM MgCl2, 10% ….

The next data set addresses T2, ScTBP (Saccharomyces cerevisiae, UniProt P13393 1-240).
T2 sequence: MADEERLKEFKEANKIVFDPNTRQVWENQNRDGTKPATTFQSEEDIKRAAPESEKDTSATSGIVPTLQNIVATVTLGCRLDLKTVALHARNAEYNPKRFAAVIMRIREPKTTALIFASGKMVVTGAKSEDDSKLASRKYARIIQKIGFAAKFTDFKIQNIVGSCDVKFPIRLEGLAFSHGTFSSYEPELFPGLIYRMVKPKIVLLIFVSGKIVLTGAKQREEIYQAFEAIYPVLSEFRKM
Nature of the data set: smFRET titration (confocal); smFRET: N70 buffer (Mj) or N65 buffer (Sa), compositions in Table 1 not in the material; Sa EMSA: 10 mM MOPS pH 6.5, 180 mM NaCl, 20 mM KOAc, 11 mM MgCl2, 10% glycerol, 5 mM DTT, 1 ug BSA, 100 ug/ml heparin, 65 C 5 min. To be noted: protein: recombinant; label: donor and ATTO647n acceptor.

For a further data set, the target named is T3, ScTBP;ScTF(II)B (Saccharomyces cerevisiae;Saccharomyces …, UniProt P13393;P29055 1-240;1-345, |).
T3 sequence 1: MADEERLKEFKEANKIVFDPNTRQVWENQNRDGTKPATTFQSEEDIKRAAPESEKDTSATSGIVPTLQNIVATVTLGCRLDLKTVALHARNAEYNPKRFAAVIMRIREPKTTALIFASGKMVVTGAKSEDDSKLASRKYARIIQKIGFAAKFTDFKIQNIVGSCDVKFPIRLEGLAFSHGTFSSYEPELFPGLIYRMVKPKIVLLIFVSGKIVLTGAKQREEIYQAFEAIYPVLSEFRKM
T3 sequence 2: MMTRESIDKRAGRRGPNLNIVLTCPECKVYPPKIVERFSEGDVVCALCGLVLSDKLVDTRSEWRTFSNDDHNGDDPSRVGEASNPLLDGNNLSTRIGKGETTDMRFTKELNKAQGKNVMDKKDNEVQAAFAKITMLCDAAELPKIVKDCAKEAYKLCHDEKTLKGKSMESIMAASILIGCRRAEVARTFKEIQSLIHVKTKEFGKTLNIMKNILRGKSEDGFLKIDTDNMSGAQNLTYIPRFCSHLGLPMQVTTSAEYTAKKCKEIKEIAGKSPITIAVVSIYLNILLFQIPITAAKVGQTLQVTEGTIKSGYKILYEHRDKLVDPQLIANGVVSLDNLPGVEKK
Nature of the data set: smFRET; TF(II)B stabilizes fully bent state; smFRET: N70 buffer (Mj) or N65 buffer (Sa), compositions in Table 1 not in the material; Sa EMSA: 10 mM MOPS pH 6.5, 180 mM NaCl, 20 mM KOAc, 11 mM MgCl2, 10% glycerol, 5 mM DTT, 1 ug BSA, 100 ug/ml heparin, 65 C 5 min. To be noted: protein: recombinant;recombinant; tags: ;; copies: 1;1; label: donor and ATTO647n acceptor.

The target of the next data set is T4, MjTBP (Methanocaldococcus jannaschii, UniProt Q57930 1-183).
T4 sequence: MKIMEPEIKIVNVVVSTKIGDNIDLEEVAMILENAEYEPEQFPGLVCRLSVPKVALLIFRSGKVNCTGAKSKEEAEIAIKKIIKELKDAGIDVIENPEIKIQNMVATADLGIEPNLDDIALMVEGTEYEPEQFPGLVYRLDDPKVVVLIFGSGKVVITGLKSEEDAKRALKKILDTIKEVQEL
Nature of the data set: smFRET titration (confocal); smFRET: N70 buffer (Mj) or N65 buffer (Sa), compositions in Table 1 not in the material; Sa EMSA: 10 mM MOPS pH 6.5, 180 mM NaCl, 20 mM KOAc, 11 mM MgCl2, 10% glycerol, 5 mM DTT, 1 ug BSA, 100 ug/ml heparin, 65 C 5 min. To be noted: protein: recombinant; label: Cy3B or ATTO532 donor, ATTO647n acceptor.

Sequence of SaTBP;SaTFB (TFB1) (Sulfolobus acidocaldarius;Sulfolobus acidocaldarius) (Q9UWN7 whole entry, looked up): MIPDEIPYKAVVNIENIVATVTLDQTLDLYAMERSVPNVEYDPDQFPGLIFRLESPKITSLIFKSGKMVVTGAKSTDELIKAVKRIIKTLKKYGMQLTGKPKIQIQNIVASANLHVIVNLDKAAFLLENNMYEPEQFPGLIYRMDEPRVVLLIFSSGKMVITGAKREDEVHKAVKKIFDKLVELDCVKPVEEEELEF

With “CGGACCGAAAGCGCGACCATCGCCGGAGATTGGAGTAAAGTTTAAATACTG (double strand) [DNASSV (SSV T6 promoter)]”, the Kd (commonly the free concentration of one partner at which half of the binding sites on the other are occupied at equilibrium, for simple one-to-one binding) amounted to 0.93 µM in data set [1] (SaTBP titrated, SaTFB 3 uM (Fig S7) or 2 uM) and 0.363 µM in data set [1] (SaTFB titrated, 14 uM SaTBP). In data set [2] (6 uM SaTBP, 5 uM SaTFB), this molecule registered a binding signal (% high FRET population) of 92.
DNASSV-BRE: the binding signal (% high FRET population) in data set [3] stood at 62; in data set [2] (SaTBP + SaTFB, main text says no second population) it was 29.

B1: DNAH2B (H2B promoter) (dsDNA)
DNA 1: CTTCACCTTATTTGCATAAGCGATTCTATATAAAAGCGCCTCGCTCTACCCTGCTCACGCTGTTTTTCCTTTTCGTTGGC
DNA 2: GCCAACGAAAAGGAAAAACAGCGTGAGCAGGGTAGAGCGAGGCGCTTTTATATAGAATCGCTTATGCAAATAAGGTGAAG
In the case of B1, the dissociation constant (Kd) in the data set with ScTBP was 0.0042 ± 0.0012 µM. In addition, the binding result with ScTBP;ScTF(II)B is recorded as “binds”.

B2: DNASSV (SSV T6 promoter) (dsDNA)
DNA 1: CGGACCGAAAGCGCGACCATCGCCGGAGATTGGAGTAAAGTTTAAATACTG
DNA 2: CAGTATTTAAACTTTACTCCAATCTCCGGCGATGGTCGCGCTTTCGGTCCG
B2: in the data set with MjTBP, the dissociation constant Kd was 0.048 ± 0.006 µM.
